Measured values reported in patent publication US20030148264A1, “Phage displayed PDZ domain ligands” (GENENTECH, INC., priority 2001, published 2003).
Each block holds one molecule with its values, some of them ahead of it. Where no end group is shown, it is not given here.

Assays:
[1] = target: ERBIN PDZ-GST fusion protein (aa. 1217-1371 of SEQ ID NO:201) (human) [GST: P08515]; assay: competition ELISA: ERBIN PDZ-GST binding to immobilized biotin-PDZ 501
[2] = target: ERBIN PDZ domain (Homo sapiens, UniProt Q96RT1); assay: GST-PDZ co-precipitation of proteins from transfected HEK 293 cell extracts; assay type: binding; design: made in house; host or cells: E. coli; conditions: extracts from transfected HEK 293 cells; FIG. 6
Method: (§1) HEK 293 (293) cells grown in high glucose Dulbeco's Modified Eagle Medium (DMEM), 10% fetal calf serum, 1× non-essential amino acid supplement, 1×L-glutamine supplement, 10 mM HEPES (pH 7.4) and penicillin/streptomycin (all from Life Technologies) to ˜80% confluence were transfected with 2 μg DNA/35 mm diameter well (for example, DNAs encoding the sequences described in EXAMPLE 5.0) using Fugene reagent (Roche Biochemical). 24 hours post-transfection, cells were washed once with PBS and then scraped into 1 ml/well of 20 mM Tris (pH 7.5), 1% Triton X-100, 200 mM NaCl, 1 mM dithiothreitol, and protease inhibitor cocktail with EDTA (Roche Biochemical, catalog #1836145) and homogenized gently with three to five strokes in a dounce (Wheaton) using a loose glass pestle. Extracts were centrifuged at 12,000 rpm in a tabletop centrifuge at 4° C. for 10 minutes; the supernatant was combined with an equal volume of homogenization buffer without NaCl to achieve a final salt concentration of 100 mM and frozen at −70° C. until use. […] Binding of 293 cell-expressed proteins was detected by immunoblot analysis using antibodies against GFP (Clontech) and Her 2 (Santa Cruz Biotechnology).
Amino acids 1217-1371 of ERBIN and 584-707 corresponding to PDZ 2 of MAGI-3 (Sidhu et al., 2000); were expressed in E. coli as GST fusions. […] Equal volumes of extract and depleted extract (sup.) were analyzed.

[3] = target: GST-MAGI-3 PDZ 3 (aa. 741-840 of SEQ ID NO:200) (human) [GST: P08515]; assay: competition ELISA: peptide blocks GST-PDZ binding to immobilized peptide
[4] = target: T1, MAGI 3 PDZ2 (Homo sapiens, UniProt Q5TCQ9); assay: Biotinylated peptide pull-down of PDZ domains from HEK 293 cell extracts; assay type: binding; design: PDZ 2; aa; expressed in transfected cells; host or cells: HEK 293; conditions: GST fusion, FIG. 4, FIG. 8
T1 sequence (Q5TCQ9 584-707 isoform Q5TCQ9-2): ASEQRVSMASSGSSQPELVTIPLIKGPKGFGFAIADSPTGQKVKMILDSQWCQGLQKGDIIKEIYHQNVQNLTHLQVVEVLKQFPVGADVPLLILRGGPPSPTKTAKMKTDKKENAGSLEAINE
Method: as §1, with “use. For peptide-pull-down experiments of MAGI-3 PDZ domains or the ERBIN PDZ domain, 100 μl of 293 cell extract was diluted to 400 μl in binding buffer (homogenization buffer modified to 100 mM NaCl) and incubated with 10 μM amino-terminally biotinylated peptide and 100 μl of strepavidin agarose (Sigma) for 2 hours on a rotator at 4° C. The beads were washed three times with 1 ml binding buffer and boiled in 60 μl of Laemmli's reducing sample buffer, of which 15 μl was loaded onto SDS-gels. PDZ domains co-precipitated with a given biotinylated peptide were visualized by immunoblot analysis using anti-GST (Genentech) or anti-GFP (Clontech) antibodies.” for “use.”, “Biotechnology). […]” for “Biotechnology).”

[5] = target: T2, MAGI-3 PDZ 3 (Homo sapiens, UniProt Q5TCQ9); assay: as above; assay type: binding; conditions: GST fusion, FIG. 4
T2 construct: PDZ 3; aa; expressed in transfected cells; host or cells: HEK 293
T2 sequence (Q5TCQ9 741-840 isoform Q5TCQ9-2): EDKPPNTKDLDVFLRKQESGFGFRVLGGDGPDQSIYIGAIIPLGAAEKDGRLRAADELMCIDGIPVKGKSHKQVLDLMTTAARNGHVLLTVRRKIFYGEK
Method: as §1, with “Biotechnology). […]” for “Biotechnology).”

[6] = test system: Caco-2 cells; assay: Peptide targeting in live Caco-2 cells (fluorescein coupled peptides, confocal microscopy); assay type: cell-based; conditions: polarised Caco-2 monolayer, overnight incubation, 2 mM or 5 mM peptide; FIG. 5
Method: Caco-2 cells were grown on polycarbonate transwell filters (12 mm diameter, 0.4 μm pore size; Costar) in same media as HEK 293 cells) until a fully polarized monolayer was obtained as determined by resistance measurements. The live cells were then incubated overnight with amino terminally, fluorescein (FAM) coupled peptides: (A) 2 μM of ATQITWV (SEQ ID NO:214), (B) 2 μM ATQITWA (SEQ ID NO:215) or (C) 5 μM ASKITWV (SEQ ID NO:216) added into the media of the lower transwell chamber. The cells were then washed with Hanks Balanced Salt Solution (HBSS) with 1.8 mM CaCl2, fixed with ice cold methanol, permeabilized with 0.25% Triton X-100 in PBS, blocked with 5% donkey serum in PBS and stained with 1.5 μg monoclonal anti-γ-catenin antibody. The basolateral marker protein γ-catenin was visualized using Cy3-conjugated donkey anti-mouse antibodies (Jackson Immunolabs), diluted 1:1000. Processed filters were excised with a razor and mounted between a slide and coverslip with Vectashield mounting medium (Vector Labs; Burlingame, Calif.). Images were taken on a Leica confocal microscope using a 63X oil immersion objective.
Caco-2 cells were grown on polycarbonate transwell filters until a fully polarised monolayer was obtained. The live cells were then incubated overnight with the fluorescein (green) coupled peptides: (A) 2 mM of ATQITWV (SEQ ID NO:214), (B) 2 mM ATQITWA (SEQ ID NO:215) or (C) 5 mM ASKITW (SEQ ID NO:221) (FIG. 5). The cells were then fixed and counterstained with antibodies against the protein γ-catenin (FIG. 5). […] Substitution of A for V at the peptide carboxyl terminus should disrupt the interaction of a ligand with its cognate PDZ binding partner.

[7] = target: GST-MAGI-3 PDZ 3 (aa. 741-840 of SEQ ID NO:200) (human) [GST: P08515]; assay: competition ELISA
[8] = target: T3, hZO1 PDZ1 (Homo sapiens, UniProt Q07157); assay: IC50 (nM) | hZO1 PDZ1 | 5 nM | B01-88 | Bio-GGWRWTTWL (SEQ ID NO: 684) | 36 nM
T3 construct: Human ZO1 (NM_003257) PDZ1; GST; made in house
Method: Table printed on a drawing sheet, FIG. 12A
Head of the field: IC50 (nM) | hZO1 PDZ1 | 5 nM | B01-88 | Bio-GGWRWTTWL (SEQ ID NO: 684) | 36 nM
The patent's description of the figure: FIG. 12. IC50 values indicating binding affinities of various peptides to PDZ domains
First copying reader's note: Upper left part of a table split over FIG. 12A-12D; further receptor columns and further peptides are on the other sheets.
Where the first naming reader finds the target: head: IC50 (nM) | hZO1 PDZ1 | 5 nM | B01-88

[9] = target: GST-MAGI-3 PDZ 2 (aa. 584-707 of SEQ ID NO:200) (human) [GST: P08515]; assay: competition ELISA
[10] = target: GST-MAGI-3 PDZ 2 (aa. 584-707 of SEQ ID NO:200) (human) [GST: P08515]; assay: competition ELISA: peptide blocks GST-PDZ binding to immobilized peptide
[11] = target: ERBIN PDZ-GST fusion protein (aa. 1217-1371 of SEQ ID NO:201) (human, UniProt P08515 1-218 = GST); assay: competition ELISA: ERBIN PDZ-GST binding to immobilized biotin-PDZ 501
[12] = target: T4, GST-MAGI-3 PDZ 2 (aa. 584-707 of SEQ ID NO:200) (human, UniProt P08515 1-218 = GST); assay: competition ELISA: peptide blocks GST-PDZ binding to immobilized peptide
[13] = target: T4, GST-MAGI-3 PDZ 2 (aa. 584-707 of SEQ ID …); assay: competition ELISA

Sequence of GST-MAGI-3 PDZ 2 (aa. 584-707 of SEQ ID NO:200) (human) [GST: P08515] (P08515 whole entry, the tested form may be a part): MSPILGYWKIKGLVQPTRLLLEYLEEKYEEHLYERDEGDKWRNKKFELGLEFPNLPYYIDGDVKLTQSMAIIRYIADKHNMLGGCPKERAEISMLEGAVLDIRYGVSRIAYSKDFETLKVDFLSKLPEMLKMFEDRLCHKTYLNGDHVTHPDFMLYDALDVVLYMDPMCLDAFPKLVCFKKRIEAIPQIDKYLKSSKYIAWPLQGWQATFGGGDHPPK
Sequence of GST-MAGI-3 PDZ 3 (aa. 741-840 of SEQ ID NO:200) (human) [GST: P08515] (P08515 whole entry, the tested form may be a part): as above
Sequence of ERBIN PDZ-GST fusion protein (aa. 1217-1371 of SEQ ID NO:201) (P08515 whole entry, the tested form may be a part): as above
T4 sequence (P08515 whole entry): as the sequence (P08515 whole entry, the tested form may be a part) above
T3 sequence (Q07157 23-110): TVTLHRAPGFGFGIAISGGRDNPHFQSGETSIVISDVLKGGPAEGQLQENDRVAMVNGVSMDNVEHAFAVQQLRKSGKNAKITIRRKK
Sequence of ERBIN PDZ-GST fusion protein (aa. 1217-1371 of SEQ ID NO:201) (human) [GST: P08515] (P08515 whole entry, the tested form may be a part): as the sequence (P08515 whole entry, the tested form may be a part) above
Sequence of ERBIN PDZ domain (Q96RT1 1258-1412): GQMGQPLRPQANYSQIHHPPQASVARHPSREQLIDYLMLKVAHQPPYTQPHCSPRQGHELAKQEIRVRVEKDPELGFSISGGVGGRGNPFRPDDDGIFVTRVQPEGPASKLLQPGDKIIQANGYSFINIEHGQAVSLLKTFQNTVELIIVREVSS

IC50 [1]: > 400000 nM
Molecule: DVPV (peptide)

binding to / precipitation by GST-ERBIN PDZ [2]: specifically precipitated
Molecule: Her 2: Her 2 receptor, a previously reported ligand for the ERBIN PDZ

IC50 [3]: 900 nM
Molecule: TRWWFDI (peptide)

fold reduction in binding affinity against the unamidated peptide [7]: 300 fold | IC50 [3]: 300000 nM
Molecule: TRWWFDI-NH2 (peptide)

IC50 [9]: 4000 nM | IC50 [10]: 4000 nM
Molecule: VTWV (peptide)

IC50 [11]: 4500 to 5000 nM
B2: TGWDTWV (peptide)
peptide: TGWDTWV

IC50 [11]: 500 to 1000 nM
B3: TGWETWV (peptide)
peptide: TGWETWV
notes: test peptide in solution

IC50 [13]: 200000 nM
B5: ITKV (peptide)
peptide: ITKV
notes: also called MAGI 3 PDZ2 domain "naturally-selected" ligand

Continued, molecule first:

Molecule: ATQITKV [biotinylated peptide with W to K change at the (−1) position, reference compound]
precipitation of MAGI-3 PDZ 2 from cell extracts by biotinylated peptide [4]: did not bind | precipitation of MAGI-3 PDZ 3 from cell extracts by biotinylated peptide [5]: did not bind

Molecule: ASKITWV [amino terminally fluorescein (FAM) coupled peptide]
localization of fluorescein coupled peptide in live cells [6]: localize apically on the lateral membrane to the tight junction

Molecule: ATQITWA [V to A change at the (0) position; used biotinylated or fluorescein coupled]
precipitation of MAGI-3 PDZ 2 from cell extracts by biotinylated peptide [4]: did not bind | localization of fluorescein coupled peptide in live cells [6]: does not target to the tight junction | precipitation of MAGI-3 PDZ 3 from cell extracts by biotinylated peptide [5]: did not bind

Molecule: Ac-WRWTTWV [13 | 01-31, SEQ ID NO: 652: N^AC-WRWTTWV]
IC50 [8]: 0.0443 nM

Molecule: ATQITWV [derivative of the C-terminus of PTEN, K to W at (−1); used biotinylated or fluorescein coupled]
precipitation of MAGI-3 PDZ 2 from cell extracts by biotinylated peptide [4]: efficiently precipitate only the PDZ domain that they were phage-selected against | localization of fluorescein coupled peptide in live cells [6]: localize apically on the lateral membrane to the tight junction

Molecule: CSWV (peptide)
IC50 [9]: 1000 nM | IC50 [10]: 1400 nM

B1: DVPA (peptide)
peptide: DVPA
notes: also called DVPA ligand
IC50 [11]: > 100000 nM

B4: DGICSWV (peptide)
peptide: DGICSWV
notes: synthetic peptide
IC50 [12]: 300 nM

B6: ASKVTWV (peptide)
peptide: ASKVTWV
notes: synthetic peptide
IC50 [12]: 800 nM
